From the supplement of paper PMC10567573

B1: ZNF649 (parent)
chain: YQAGKPDALTKLEQGEPLWTLEDE

Variants of: B1
Test: protein stability index of a GFP-peptide fusion (GPS, HEK-293T) (PSI 1-6); higher = more stable
Conditions: c terminus: a fixed tail appended
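Further: lentivirally expressed fusions sorted by FACS into six bins by GFP to DsRed ratio, PSI derived from sequencing read proportions per bin multiplied by bin number.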

Protein stability index of substitutions, site by site:
L9: G 4.55, E 4.93, H 4.04, W 1.86, Y 4.54, K 4.86, M 3.61, R 4.29, C 4.63, I 4.69, T 4.71, A 4.95, N 3.99, V 4.62, F 4.01, P 4.38, Q 4.67, D 5.48, S 4.9
K5: C 4.72, A 4.48, D 4.01, T 4.6, M 4.38, N 4.84, S 4.48, P 5, V 3.03, F 2.76, L 4.05, I 4.02, R 3.31, Y 2.6, E 4.59
P6: L 3.79, D 3.77, Q 4.15, S 4.19, I 4.32, V 4.42, C 4.17, H 3.93, K 4.29, W 2.99, G 4.99, N 4.15, M 3.85, F 3.31, Y 3.91, A 3.88, E 5.46, T 4.64
A3: E 4.65, P 4.36, T 4.54, R 3.66, W 2.2, I 4.51, Q 4.75, K 4.75, Y 4.25, N 4.71, C 3.83, V 4.42, H 4.14, L 4.26, F 3.64, M 4.1
K11: C 4.45, N 4.51, A 4.66, W 2.86, I 4.54, H 4.78, E 4.06, T 4.09, P 5.28, S 4.19, L 4.23, R 4.14, F 3.37, V 4.69, D 4.86, Y 3.51, G 4.21, M 4.77, Q 4.76
A8: N 4.49, V 3.51, L 3.56, K 4.85, C 3.61, D 4.94, H 4.04, I 4.08, Q 4.41, S 4.46, E 5.31, P 4.27, T 3.95, F 2.91, W 1.18, R 4.65, G 4.87, M 3.83
T10: I 4.02, S 4.62, P 4.97, K 3.15, W 2.31, A 4.88, Y 4.58, C 4.28, D 4.91, N 4.41, V 4.62, R 3.97, Q 4.55, M 4.22, G 3.69, L 4.39, E 4.5
D7: S 3.99, N 3.26, Y 2.06, A 3.4, R 3.65, I 2.61, P 4.16, L 3.15, V 3.28, Q 3.58, F 2.49, T 3.59, K 3.66, H 4.18, C 2.37, E 4.77
L12: F 4.37, A 4.95, H 4.73, I 4.56, C 5.11, G 4.83
Q2: Y 3.56, V 2.53, N 4.22, R 5.15, S 4.99, T 5.05, P 4.8
G4: P 4.63, Y 3.59, Q 4.08, S 4.4, D 5.05, I 4.22, E 4.38, R 3.53, H 4.58, K 4.18, L 4.17, T 3.97, F 4.8, N 4.92, C 4.47, A 4.68
